Results: US10471162B2, “Collagen targeted imaging probes” (priority 2014, dated 2019)

Legend:
in vivo [1] = type: in vivo, mouse; settings: male, C57/BL6, mouse, in vivo, iv, total radioactivity, Biodistribution % ID/g
Method: (§1) Pulmonary fibrosis was induced in 7-8-week-old male C57/BL6 mice by transtracheal administration of bleomycin (BM; 2.5 U/kg) in 50 μL of PBS under direct vision using a small cervical incision. Sham animals received only PBS. Animals were placed in a small-animal PET/SPECT/CT scanner (Triumph; TriFoil Imaging), equipped with inhalation anesthesia and heating pad. Each animal was anesthetized with isoflurane (4% for induction, 2-2.5% for maintenance in medical air) and body temperature was kept at 37-38° C. using a heating pad. The femoral vein was cannulated for intravenous delivery of the PET agent. Each mouse was injected with approximately 0.1 mL and 20-50 μCi of ^64Cu-CBP(n), 0.1 mL and 20-50 μCi of ^68Ga-CBP(n) and 0.1 mL and 10-20 μCi of Al^18F-CBP(n) in a 18 mM solution of sucrose in water, followed by saline flush. […] The lungs, blood, urine, heart, liver, left rectus femoris muscle, spleen, small intestine, kidneys, left femur bone were collected from all animals. The tissues were weighed, and radioactivity in each tissue was measured on a gamma counter (CobraII Auto gamma; Packard). The radioactivity in the lung was reported as percent injected dose per gram corrected with the average sham weight, which was calculated by dividing the counts of ^64Cu per average sham tissue weight in gram by the total of counts of the injected dose. The radioactivity in every other tissue was reported as percent injected dose per gram (% ID/g), which was calculated by dividing the counts of ^64Cu per gram of tissue by the total of counts of the injected dose. A p-value of less than 0.05 was considered significant. Uncertainties are expressed as the standard error of the mean.

[2] = system: pulmonary fibrosis, C57/BL6 mice (bleomycin or sham); experiment: in vivo; type: in vivo, mouse; settings: male, C57/BL6, mouse, in vivo, iv, 2.5 h
Method: as §1

in vivo [3] = experiment: in vivo; set-up: species or system mouse; settings: male, C57Bl/6, mouse, iv, total radioactivity, Biodistribution % ID/g
Method: as §1, with “Adult male C57Bl/6 mice were administered a single intratracheal dose of low dose bleomycin at 0.1 U/kg (low dose), in a total volume of 50 μl sterile saline. FTY720” for “Pulmonary fibrosis”, “administered intraperitoneally to the” for “induced in 7-8-week-old male C57/BL6”, “at 1 mg/kg three times” for “by transtracheal administration of bleomycin (BM; 2.5 U/kg) in 50 μL of PBS under direct vision using”, “week.” for “small cervical incision. Sham animals received only PBS.”

[4] = system: pulmonary fibrosis, C57Bl/6 mice (low dose bleomycin, FTY720); experiment: in vivo; set-up: species or system mouse
Method: as §1, with “Adult male C57Bl/6 mice were administered a single intratracheal dose of low dose bleomycin at 0.1 U/kg (low dose), in a total volume of 50 μl sterile saline. FTY720” for “Pulmonary fibrosis”, “administered intraperitoneally to the” for “induced in 7-8-week-old male C57/BL6”, “at 1 mg/kg three times” for “by transtracheal administration of bleomycin (BM; 2.5 U/kg) in 50 μL of PBS under direct vision using”, “week.” for “small cervical incision. Sham animals received only PBS.”

[5] = male, C57Bl/6, mouse, iv, 2.5 h

## CC(C)C[C@H](NC(=O)[C@@H]1CSSC[C@H](NC(=O)[C@H](Cc2c[nH]cn2)NC(=O)[C@H](Cc2c[nH]c3ccccc23)NC(=O)[C@H](CCCCNC(=O)CNC(=O)CCC(C(=O)O)N2CCN(CC(=O)O)CCN(CC(=O)O)CC2)NC(=O)CNC(=O)CCC(C(=O)O)N2CCN(CC(=O)O)CCN(CC(=O)O)CC2)C(=O)N[C@@H]([C@@H](C)O)C(=O)N[C@@H]([C@@H](C)O)C(=O)N[C@@H](CCCCNC(=O)CCC(C(=O)O)N2CCN(CC(=O)O)CCN(CC(=O)O)CC2)C(=O)N[C@@H](Cc2ccccc2)C(=O)N2CCC[C@H]2C(=O)N[C@@H](Cc2c[nH]cn2)C(=O)N[C@@H](Cc2c[nH]cn2)C(=O)N[C@@H](Cc2ccc(O)cc2)C(=O)N1)C(=O)N[C@@H](Cc1ccc(O)cc1)C(=O)N[C@@H](Cc1ccc(-c2ccccc2)cc1)C(N)=O (single isomer, unassigned) [CBP8]
In vivo [1]; blood
  tissue uptake at 2.5 h: 0.512 ± 0.181 %ID/g
In vivo [1]; bone
  tissue uptake at 2.5 h: 1.11 ± 0.594 %ID/g
In vivo [1]; heart
  tissue uptake at 2.5 h: 0.242 ± 0.059 %ID/g
In vivo [1]; kidney
  tissue uptake at 2.5 h: 30 ± 4.59 %ID/g
In vivo [1]; liver
  tissue uptake at 2.5 h: 0.95 ± 0.127 %ID/g
In vivo [1]; muscle
  tissue uptake at 2.5 h: 0.567 ± 0.247 %ID/g
In vivo [1]; sm. intestine
  tissue uptake at 2.5 h: 0.42 ± 0.086 %ID/g
In vivo [1]; spleen
  tissue uptake at 2.5 h: 0.462 ± 0.047 %ID/g
[2]
  Biodistribution % ID/g, blood: 0.569 ± 0.102 % ID/g
  Biodistribution % ID/g, bone: 1.117 ± 0.347 % ID/g
  Biodistribution % ID/g, heart: 0.340 ± 0.032 % ID/g
  Biodistribution % ID/g, kidney: 41.063 ± 5.830 % ID/g
  Biodistribution % ID/g, liver: 1.189 ± 0.113 % ID/g
  Biodistribution % ID/g, muscle: 0.927 ± 0.422 % ID/g
  Biodistribution % ID/g, sm. intestine: 0.830 ± 0.197 % ID/g
  Biodistribution % ID/g, spleen: 0.659 ± 0.141 % ID/g
In vivo [3]; blood
  tissue uptake at 2.5 h: 0.347 ± 0.017 %ID/g
In vivo [3]; heart
  tissue uptake at 2.5 h: 0.293 ± 0.024 %ID/g
In vivo [3]; kidney
  tissue uptake at 2.5 h: 42.7 ± 1.42 %ID/g
In vivo [3]; liver
  tissue uptake at 2.5 h: 1.44 ± 0.108 %ID/g
In vivo [3]; small intest.
  tissue uptake at 2.5 h: 0.477 ± 0.052 %ID/g
In vivo [3]; spleen
  tissue uptake at 2.5 h: 0.47 ± 0.045 %ID/g
[4]; [5]
  Biodistribution % ID/g, blood: 0.523 ± 0.062 % ID/g
  Biodistribution % ID/g, heart: 0.340 ± 0.038 % ID/g
  Biodistribution % ID/g, kidney: 50.36 ± 2.756 % ID/g
  Biodistribution % ID/g, liver: 1.998 ± 0.117 % ID/g
  Biodistribution % ID/g, small intest.: 0.690 ± 0.064 % ID/g
  Biodistribution % ID/g, spleen: 0.925 ± 0.126 % ID/g
[4]; mouse
  organ uptake between groups, except lungs, in words: not significantly different
